The target in assay [1] is BRD4 (bromodomain-containing protein 4) (UniProt Q9ESU6). Briefly: co-immunoprecipitation (IP: BMAL1) with immunoblot, chemiluminescence band intensity. To be noted: nuclear extracts, synchronized fibroblasts 24 hr after Dex, scale: relative band intensity. For orientation: A western blot detects proteins with antibodies after separation by electrophoresis.
The target of assay [2] is CDK9 (cyclin-dependent kinase 9) (UniProt Q99J95). The assay is described as above. To be noted: nuclear extracts, synchronized fibroblasts 24 hr after Dex, scale: relative band intensity.
[3] abbreviates: highest amount of IP (two-fold dilution series, lane 3 of 3).
Where [4] appears, read: lowest amount of IP (two-fold dilution series, lane 1 of 3).
The mark [5] stands for this setting: middle amount of IP (two-fold dilution series, lane 2 of 3).

As for “BMAL1 (brain and muscle ARNT-like protein 1) K538R”, the response in assay [1] (setting [3]) was found to be 0.1; in assay [1] (setting [4]), 0.02; in assay [1] (setting [5]), 0.06; in assay [2] (setting [3]), 0.07; in assay [2] (setting [4]) it was 0.01; in assay [2] (setting [5]) it was 0.03.

The record behind these values is article PMC6650244.
